Data: paper PMC10830117 (Science Advances, 2024)

Biological target: T1, Glutathione synthetase (GSS), full-length wild type, recombinant (human, UniProt P48637 1-474)
T1 sequence (looked up): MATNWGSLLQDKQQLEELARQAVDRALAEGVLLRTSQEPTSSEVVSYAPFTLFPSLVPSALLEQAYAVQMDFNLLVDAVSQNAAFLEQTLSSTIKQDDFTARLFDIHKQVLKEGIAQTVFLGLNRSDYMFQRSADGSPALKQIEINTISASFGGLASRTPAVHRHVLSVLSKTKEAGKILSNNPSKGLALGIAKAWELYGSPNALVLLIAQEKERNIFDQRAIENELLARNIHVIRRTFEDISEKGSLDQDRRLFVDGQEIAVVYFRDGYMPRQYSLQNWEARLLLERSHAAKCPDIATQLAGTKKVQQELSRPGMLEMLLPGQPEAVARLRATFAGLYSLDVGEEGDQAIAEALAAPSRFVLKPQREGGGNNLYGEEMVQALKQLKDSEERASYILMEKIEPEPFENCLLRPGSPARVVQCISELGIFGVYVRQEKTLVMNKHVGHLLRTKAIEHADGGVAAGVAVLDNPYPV
Assay: SPR

Kd: 244 ± 2 nM
stoichiometry N: 1
B1: Human LMPTP-A (low-molecular weight protein tyrosine phosphatase, isoform A) (enzyme, UniProt P24666 1-158, looked up)
chain: MAEQATKSVLFVCLGNICRSPIAEAVFRKLVTDQNISENWRVDSAATSGYEIGNPPDYRGQSCMKRHGIPMSHVARQITKEDFATFDYILCMDESNLRDLNRKSNQVKTCKAKIELLGSYDPQKQLIIEDPYYGNDSDFETVYQQCVRCCRAFLEKAH
